According to PMC11480844 (2024):

B1: H2-Kb / Ed31 (parent complex)
chain 1: GQQVQQSPASLVLQEGENAELQCNFSTSLNSMQWFYQRPGGSLVSLFYNPSGTKHSGRLTSTTVIKERRSSLHISSSQTTDSGTYLCALEGNYAQGLTFGLGTRVSVFP
chain 2: ETAVFQTPNYHVTQVGNEVSFNCKQTLGHDTMYWYKQDSKKLLKIMFSYNNKQLIVNETVPRRFSPQSSDKAHLNLRIKSVEPEDSAVYLCASRSAGEQYFGPGTRLTVL
chain 3: not shown
chain 4: IQKTPQIQVYSRHPPENGKPNILNCYVTQFHPPHIEIQMLKNGKKIPKVEMSDMSFSKDWSFYILAHTEFTPTETDTYACRVKHDSMAEPKTVYWDRDM
chain 5: SIINFEKL
B2: H2-Kb / Ed46 (parent complex)
chain 1: AQSVTQPDARVTVSEGASLQLRCKYSYFGTPYLFWYVQYPRQGLQLLLKYYPGDPVVQGVNGFEAEFSKSNSSFHLRKASVHWSDWAVYFCAVGRTGGYKVVFGSGTRLLVSP
chain 2: DSGVVQSPRHIIKEKGGRSVLTCIPISGHSNVVWYQQTLGKELKFLIQHYEKVERDKGFLPSRFSVQQFDDYHSEMNMSALELEDSAMYFCASSPRHSDYTFGSGTRLLVI
chain 3: not shown
chain 4: B1 chain 4
chain 5: SIINFEKL

Variants of: B1
Test: % of reporter cells activated (NFAT-GFP), raw
Note: test concentration or dose not given here.

ratio to parent	Variant
0.821	chain 5 F5L
0.496	chain 5 F5I
0.536	chain 5 F5D
0.866	chain 5 F5A
1.11	chain 5 F5Y
0.829	chain 5 F5W
0.892	chain 5 F5H
0.635	chain 5 F5R
0.529	chain 5 F5G
0.917	chain 5 F5M
0.859	chain 5 F5V
0.49	chain 5 F5Q
0.812	chain 5 L8V
0.602	chain 5 L8C
0.766	chain 5 L8W
0.69	chain 5 L8N
0.922	chain 5 L8Y
0.762	chain 5 L8S
0.968	chain 5 L8I
0.687	chain 5 L8E
0.862	chain 5 L8T
0.876	chain 5 L8Q
0.891	chain 5 L8F
0.779	chain 5 L8P
0.791	chain 5 L8R
0.802	chain 5 L8H

ratio to parent	Variant
0.898	chain 5 L8A
1.11	chain 5 I2E
1.07	chain 5 I2V
1.09	chain 5 I2T
0.851	chain 5 I2R
1.07	chain 5 I2C
0.795	chain 5 I2F
0.863	chain 5 I2W
1.07	chain 5 I2M
0.897	chain 5 I2Q
0.0115	chain 5 E6F
0.25	chain 5 E6M
0.435	chain 5 E6G
0.00379	chain 5 E6V
0.0864	chain 5 E6Y
0.00233	chain 5 E6W
0.00349	chain 5 E6R
0.174	chain 5 E6H
0.0173	chain 5 E6A
0.458	chain 5 E6D
0.00329	chain 5 E6S
0.0136	chain 5 E6N
0.0101	chain 5 E6P
0.00208	chain 5 E6T
0.0188	chain 5 N4E
0.583	chain 5 N4Q

ratio to parent	Variant
0.156	chain 5 N4T
0.0359	chain 5 N4K
0.0703	chain 5 N4R
0.198	chain 5 N4L
0.083	chain 5 N4G
0.127	chain 5 N4F
0.484	chain 5 N4I
0.00781	chain 5 N4S
0.031	chain 5 N4C
0.132	chain 5 N4V
0.0503	chain 5 N4A
0.0223	chain 5 N4P
0.46	chain 5 S1L
0.803	chain 5 S1A
0.757	chain 5 S1K
0.459	chain 5 S1F
0.898	chain 5 S1M
0.44	chain 5 S1C
0.532	chain 5 S1R
0.163	chain 5 S1N
0.658	chain 5 S1P
0.757	chain 5 S1Q
0.498	chain 5 S1W
0.982	chain 5 I3V
0.355	chain 5 I3W
0.563	chain 5 I3M

ratio to parent	Variant
0.0501	chain 5 I3R
0.375	chain 5 I3D
0.309	chain 5 I3G
0.183	chain 5 I3H
0.499	chain 5 I3E
0.272	chain 5 I3Q
0.523	chain 5 I3A
1.02	chain 5 I3L
0.548	chain 5 I3T
0.894	chain 5 I3P
0.542	chain 5 K7W
0.0194	chain 5 K7E
0.167	chain 5 K7D
0.614	chain 5 K7S
0.141	chain 5 K7L
0.167	chain 5 K7Y
0.298	chain 5 K7P
0.104	chain 5 K7M
0.247	chain 5 K7V
0.185	chain 5 K7N
0.102	chain 5 K7T
0.0347	chain 5 K7F
0.698	chain 5 K7R

Variants of: B2
Test: % of reporter cells activated (NFAT-GFP), raw

ratio to parent	Variant
0.00395	chain 5 K7E
0.0252	chain 5 K7C
0.2	chain 5 K7I
0.178	chain 5 K7L
0.138	chain 5 K7N
0.0775	chain 5 K7Q
0.628	chain 5 K7W
0.0119	chain 5 N4W
0.317	chain 5 N4R
0.00841	chain 5 N4T
0.00538	chain 5 N4M
0.0593	chain 5 N4L
0.0186	chain 5 N4Y
0.027	chain 5 N4K
0.00841	chain 5 N4P
0.16	chain 5 E6L
0.038	chain 5 E6W
0.534	chain 5 E6A
0.746	chain 5 S1A
0.278	chain 5 S1T
0.0427	chain 5 S1P
0.0634	chain 5 S1C
0.0395	chain 5 S1N
0.0256	chain 5 S1V
0.973	chain 5 S1H

ratio to parent	Variant
0.898	chain 5 I2N
1.39	chain 5 I2T
1.4	chain 5 I2A
1.13	chain 5 I2F
1.11	chain 5 I2R
0.656	chain 5 I2Y
0.47	chain 5 I3E
0.446	chain 5 I3M
1.08	chain 5 I3Y
0.17	chain 5 I3D
0.924	chain 5 I3K
0.202	chain 5 I3G
0.245	chain 5 I3R
0.998	chain 5 I3H
1.32	chain 5 F5S
1.17	chain 5 F5L
1.02	chain 5 F5M
1.18	chain 5 F5R
1.19	chain 5 F5C
0.613	chain 5 L8C
1.07	chain 5 L8I
1.09	chain 5 L8K
0.861	chain 5 L8A
1.07	chain 5 L8Y
